Molecular target: purified HLA MHC Class II molecules (human)
Assay: ELISA, biotinylated peptides on immobilized purified HLA class II molecules (FIG. 5)

dnaJp1 peptide (…)
fold stronger binding than S1 and S6 peptides: > 100 fold

— patent publication US7094597
